What all share (assay): BLI
Common to all, as to conditions: both partners purified

For one assay, the target named is T1, fHbp mutant 0022 (Neisseria meningitidis, fHbp v3.28 …, point mutant).
T1 chain: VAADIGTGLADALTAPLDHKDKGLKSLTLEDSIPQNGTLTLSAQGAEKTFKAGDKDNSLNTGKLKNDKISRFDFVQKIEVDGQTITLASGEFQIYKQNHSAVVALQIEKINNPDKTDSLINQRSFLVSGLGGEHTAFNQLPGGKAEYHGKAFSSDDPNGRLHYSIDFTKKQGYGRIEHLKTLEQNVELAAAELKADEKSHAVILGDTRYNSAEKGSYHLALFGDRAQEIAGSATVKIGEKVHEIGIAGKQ

For the next assay, the target named is T2, fHbp mutant 0016 (Neisseria meningitidis, fHbp v1.1 mutant, point mutant).
T2 chain: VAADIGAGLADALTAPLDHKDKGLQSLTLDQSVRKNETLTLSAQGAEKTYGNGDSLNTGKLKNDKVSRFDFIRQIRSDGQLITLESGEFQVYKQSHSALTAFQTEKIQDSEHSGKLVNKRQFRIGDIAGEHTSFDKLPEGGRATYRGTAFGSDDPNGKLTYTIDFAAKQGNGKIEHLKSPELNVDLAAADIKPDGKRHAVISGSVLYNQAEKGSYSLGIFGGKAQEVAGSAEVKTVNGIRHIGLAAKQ

The target of another assay is T3, fHbp m001767 (Neisseria meningitidis fHbp v3.28, …, point mutant).
T3 chain: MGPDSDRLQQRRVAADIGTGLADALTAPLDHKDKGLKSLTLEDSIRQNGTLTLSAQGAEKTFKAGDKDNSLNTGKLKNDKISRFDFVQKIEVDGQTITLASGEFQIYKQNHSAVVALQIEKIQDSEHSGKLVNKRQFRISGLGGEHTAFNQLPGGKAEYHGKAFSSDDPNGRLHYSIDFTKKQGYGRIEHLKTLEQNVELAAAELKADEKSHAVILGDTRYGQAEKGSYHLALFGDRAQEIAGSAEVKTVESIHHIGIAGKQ

For the next assay, the target named is T4, fHbp m001820 (Neisseria meningitidis fHbp v3.28, …, point mutant).
T4 chain: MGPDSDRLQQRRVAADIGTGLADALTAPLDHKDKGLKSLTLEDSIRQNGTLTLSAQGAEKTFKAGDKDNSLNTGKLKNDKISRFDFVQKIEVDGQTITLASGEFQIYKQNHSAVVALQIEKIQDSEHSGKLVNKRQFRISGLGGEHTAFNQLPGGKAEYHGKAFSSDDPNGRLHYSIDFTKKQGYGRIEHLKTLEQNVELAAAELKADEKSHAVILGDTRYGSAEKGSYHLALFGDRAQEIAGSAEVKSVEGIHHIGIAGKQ

The target of a further assay is T5, fHbp m001848 (Neisseria meningitidis, engineered fHbp …, chimera).
T5 chain: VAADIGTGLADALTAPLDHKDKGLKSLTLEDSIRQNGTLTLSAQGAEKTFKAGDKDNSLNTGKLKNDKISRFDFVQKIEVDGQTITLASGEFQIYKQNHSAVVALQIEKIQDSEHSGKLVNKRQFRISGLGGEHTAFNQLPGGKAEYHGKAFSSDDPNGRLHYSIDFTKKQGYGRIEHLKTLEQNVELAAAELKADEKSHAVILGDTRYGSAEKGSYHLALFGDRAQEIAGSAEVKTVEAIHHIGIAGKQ

The target in another assay is T6, fHbp m001213 (Neisseria meningitidis fHbp v3.28-based …, point mutant).
T6 chain: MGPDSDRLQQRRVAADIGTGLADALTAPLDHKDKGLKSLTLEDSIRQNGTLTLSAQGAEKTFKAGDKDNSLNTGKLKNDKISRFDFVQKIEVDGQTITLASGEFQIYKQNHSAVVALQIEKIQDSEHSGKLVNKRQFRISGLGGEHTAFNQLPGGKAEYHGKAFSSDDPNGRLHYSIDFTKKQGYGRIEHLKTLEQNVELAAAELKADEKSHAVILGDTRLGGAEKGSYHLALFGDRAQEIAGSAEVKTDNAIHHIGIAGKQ

In a further assay the target is T7, fHbp m001604 (Neisseria meningitidis, fHbp …, point mutant).
T7 chain: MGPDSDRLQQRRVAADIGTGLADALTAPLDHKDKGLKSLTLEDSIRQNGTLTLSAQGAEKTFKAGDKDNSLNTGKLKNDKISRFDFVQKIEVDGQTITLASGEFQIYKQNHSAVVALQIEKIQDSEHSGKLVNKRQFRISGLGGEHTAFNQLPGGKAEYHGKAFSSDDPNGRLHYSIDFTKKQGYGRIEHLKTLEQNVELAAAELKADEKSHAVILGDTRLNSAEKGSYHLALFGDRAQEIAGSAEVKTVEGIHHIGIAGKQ

Another assay concerns the target T8, fHbp m001608 (Neisseria meningitidis, fHbp …, point mutant).
T8 chain: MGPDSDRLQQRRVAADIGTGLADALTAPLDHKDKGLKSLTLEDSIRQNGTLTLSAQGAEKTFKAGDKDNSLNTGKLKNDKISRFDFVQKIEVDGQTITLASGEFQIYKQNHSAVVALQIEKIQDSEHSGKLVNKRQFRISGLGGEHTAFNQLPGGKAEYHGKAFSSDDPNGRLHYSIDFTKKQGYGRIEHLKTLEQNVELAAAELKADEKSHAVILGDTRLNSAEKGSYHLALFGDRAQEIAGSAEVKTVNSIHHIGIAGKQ

Assay [1] addresses T9, factor H binding protein variant 3.28 (Neisseria meningitidis, fHbp variant …).
T9 construct: also called fHbp v3.28; v3.28 Control (0002)
T9 chain: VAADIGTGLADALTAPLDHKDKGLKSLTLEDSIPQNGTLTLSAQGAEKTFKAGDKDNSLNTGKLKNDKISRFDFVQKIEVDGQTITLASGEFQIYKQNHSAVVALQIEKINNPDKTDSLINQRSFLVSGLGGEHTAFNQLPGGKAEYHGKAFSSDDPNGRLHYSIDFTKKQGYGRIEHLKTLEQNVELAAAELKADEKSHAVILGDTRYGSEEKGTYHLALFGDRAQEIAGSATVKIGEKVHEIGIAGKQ

B1: mAb 1E6 (human) (antibody, V domains shown)
VH: EVQLVQSGAEVKKPGSSVKVSCKASGGTVIDYPITWVRQAPGQGLEWVGGFVPLFRTSNYGQKFQGRVTITADKSTSTASMELNSLTSEDTAIYYCARGDTAMGPFDYWGQGTLVTVSS
VL: SYVLTQPPSLSVAPGKTATLTCGGNNIAGKTVHWYQQRPGQAPVLVISYDSDRPSGIPERFSGSNSANTATLTISRVEAGDEADYYCQVWDRNSDHWVFGGGTKLTVL
notes: source: Expi293, purified (MabSelect SuRe, SEC); copies: 2 + 2
A word on the Kd: it is the constant that tells how readily two partners part at equilibrium. A high value points to a looser complex. Usually koff stands for the rate constant with which the complex falls apart. A high value points to fast dissociation. For orientation: kon means the second-order rate constant of association. Read a low kon as slower complex formation. With B1, the dissociation constant Kd stood at 0.601 nM with fHbp mutant 0022; 0.69 nM with fHbp mutant 0016; 0.131 nM in the assay with fHbp m001767; 0.531 nM with fHbp m001820; 0.344 nM with fHbp m001848; 0.594 nM with fHbp m001213. Also, the dissociation constant Kd was determined as 0.493 nM with fHbp m001604, 0.154 nM with fHbp m001608 and 0.77 nM in assay [1]. In addition, the dissociation rate constant (koff) in the assay with fHbp mutant 0022 came to 0.0003 s⁻¹; with fHbp mutant 0016, 0.000223 s⁻¹; with fHbp m001767, 4.68e-05 s⁻¹; with fHbp m001820, 0.000171 s⁻¹; in the assay with fHbp m001848, 0.000155 s⁻¹; with fHbp m001213 it was 0.000262 s⁻¹. The koff stood at 0.000104 s⁻¹ in the assay with fHbp m001604, 8.28e-05 s⁻¹ with fHbp m001608 and 0.000387 s⁻¹ in [1]. In addition, the kon with fHbp mutant 0022 is 498300 ± 1660 M⁻¹ s⁻¹; with fHbp mutant 0016, 323000 ± 3620 M⁻¹ s⁻¹; with fHbp m001767, 358200 ± 2140 M⁻¹ s⁻¹; with fHbp m001820, 322300 ± 1430 M⁻¹ s⁻¹; in the assay with fHbp m001848 it was 451100 ± 2150 M⁻¹ s⁻¹; in the assay with fHbp m001213, 440700 ± 1810 M⁻¹ s⁻¹. For the same molecule, the values for the kon (with fHbp m001604; in the assay with fHbp m001608; in assay [1]) were 210000 ± 2260 M⁻¹ s⁻¹, 537900 ± 1940 M⁻¹ s⁻¹ and 501900 ± 2080 M⁻¹ s⁻¹, respectively.

B2: mAb 4B3 (human) (antibody, V domains shown)
VH: QVQLVQSGGGLVKPGGSLRLSCAASGFPFSSYYMSWIRQAPGKGLEWVSDINNSGNVKEYADFVKGRLTISRDNVKNSMYLHMNSLRVEDTAVYYCARNRGRFDVWGQGTLVTVSA
VL: EIVMTQSPGTLSLSPGETATLSCRASQMISSPFLAWYQQRRGQAPRLLIYGASTRATDTPDRFRGSGSGTDFILTISRLEPEDFAVYYCQYYDDSPFTFGQGTKLEIK
notes: also called 4B3-2; source: Expi293, purified (MabSelect SuRe, SEC); copies: 2 + 2
In the assay with fHbp mutant 0022, B2 displayed a dissociation constant (Kd) of 1.77 nM, a koff of 0.000836 s⁻¹ and a kon of 473200 ± 1420 M⁻¹ s⁻¹. In the assay with fHbp mutant 0016, this molecule came in with a dissociation constant Kd of 4.74 nM, a koff of 0.00131 s⁻¹ and an on-rate (kon) of 276800 ± 1380 M⁻¹ s⁻¹.

Source of the values: publication PMC12319226 (Frontiers in Bioinformatics, 2025).
